B1: APLKMLALV (SEQ ID NO: 105) (peptide)
peptide: APLKMLALV
B2: QATPRVRIL (SEQ ID NO: 133) (peptide)
peptide: QATPRVRIL
B3: YGRIGISLF (SEQ ID NO: 139) (peptide)
peptide: YGRIGISLF
B4: IMKKIRESY (SEQ ID NO: 102) (peptide)
peptide: IMKKIRESY
B5: GAGLRITAPL (SEQ ID NO: 111) (peptide)
peptide: GAGLRITAPL
B6: ESSAQPTAL (SEQ ID NO: 122) (peptide)
peptide: ESSAQPTAL
B7: DADLREQAL (SEQ ID NO: 143) (peptide)
peptide: DADLREQAL
B8: IANLRVKNI (SEQ ID NO: 103) (peptide)
peptide: IANLRVKNI
B9: IPASHPVLTL (SEQ ID NO: 109) (peptide)
peptide: IPASHPVLTL
B10: HSWTRTSV (SEQ ID NO: 124) (peptide)
peptide: HSWTRTSV
B11: LPKGLKDWQA (SEQ ID NO: 107) (peptide)
peptide: LPKGLKDWQA
B12: ELILKRCL (SEQ ID NO: 14) (peptide)
peptide: ELILKRCL
B13: TAAEARLSL (SEQ ID NO: 126) (peptide)
peptide: TAAEARLSL
B14: NALDPLSAL (SEQ ID NO: 112) (peptide)
peptide: NALDPLSAL
B15: KMFYRKDVM (SEQ ID NO: 136) (peptide)
peptide: KMFYRKDVM
B16: EPFTRPVL (SEQ ID NO: 13) (peptide)
peptide: EPFTRPVL
B17: ALKLKVAEL (SEQ ID NO: 1) (peptide)
peptide: ALKLKVAEL
B18: VGPNGFKSL (SEQ ID NO: 117) (peptide)
peptide: VGPNGFKSL
B19: IPIQAHQI (SEQ ID NO: 132) (peptide)
peptide: IPIQAHQI
B20: HLHLLETSI (SEQ ID NO: 106) (peptide)
peptide: HLHLLETSI
B21: FTQNPRVQL (SEQ ID NO: 116) (peptide)
peptide: FTQNPRVQL
B22: MEKGLASL (SEQ ID NO: 113) (peptide)
peptide: MEKGLASL
B23: FAFGEPREL (SEQ ID NO: 104) (peptide)
peptide: FAFGEPREL
B24: HRILRLPAL (SEQ ID NO: 129) (peptide)
peptide: HRILRLPAL
B25: EYLETKRLAF (SEQ ID NO: 135) (peptide)
peptide: EYLETKRLAF
B26: DQRSRATL (SEQ ID NO: 134) (peptide)
peptide: DQRSRATL
B27: SLLPFTLSF (SEQ ID NO: 123) (peptide)
peptide: SLLPFTLSF
B28: MIYRKALRL (SEQ ID NO: 145) (peptide)
peptide: MIYRKALRL
B29: IAVDKPITL (SEQ ID NO: 140) (peptide)
peptide: IAVDKPITL
B30: VQWKPPAL (SEQ ID NO: 137) (peptide)
peptide: VQWKPPAL
B31: YSQLSISL (SEQ ID NO: 121) (peptide)
peptide: YSQLSISL
B32: MRILKRFLAC (SEQ ID NO: 115) (peptide)
peptide: MRILKRFLAC
B33: MSTKTTSI (SEQ ID NO: 131) (peptide)
peptide: MSTKTTSI
B34: TQHLTVATL (SEQ ID NO: 138) (peptide)
peptide: TQHLTVATL
B35: PVKPKFYL (SEQ ID NO: 114) (peptide)
peptide: PVKPKFYL
B36: MGKFKQCF (SEQ ID NO: 10) (peptide)
peptide: MGKFKQCF
B37: TQKSVQVL (SEQ ID NO: 149) (peptide)
peptide: TQKSVQVL
B38: HFHNRHVF (SEQ ID NO: 128) (peptide)
peptide: HFHNRHVF
B39: EPVIRTVSI (SEQ ID NO: 127) (peptide)
peptide: EPVIRTVSI
B40: FQTAHFYL (SEQ ID NO: 146) (peptide)
peptide: FQTAHFYL
B41: LPAPYQHQL (SEQ ID NO: 130) (peptide)
peptide: LPAPYQHQL
B42: AQLKLVAL (SEQ ID NO: 141) (peptide)
peptide: AQLKLVAL
B43: DFYLRSSAF (SEQ ID NO: 12) (peptide)
peptide: DFYLRSSAF
B44: AQRSEMVTL (SEQ ID NO: 120) (peptide)
peptide: AQRSEMVTL
B45: MAFVKHLL (SEQ ID NO: 118) (peptide)
peptide: MAFVKHLL
B46: HAMDGASHL (SEQ ID NO: 147) (peptide)
peptide: HAMDGASHL
B47: YNLIYSMCL (SEQ ID NO: 142) (peptide)
peptide: YNLIYSMCL
B48: RSYYHPTNL (SEQ ID NO: 108) (peptide)
peptide: RSYYHPTNL
B49: DAMTKHTL (SEQ ID NO: 110) (peptide)
peptide: DAMTKHTL
B50: DVNPVSLQL (SEQ ID NO: 148) (peptide)
peptide: DVNPVSLQL
B51: MAPLKMLAL (SEQ ID NO: 11) (peptide)
peptide: MAPLKMLAL
B52: FQRVSSVSF (SEQ ID NO: 119) (peptide)
peptide: FQRVSSVSF
B53: FPLVTPLL (SEQ ID NO: 125) (peptide)
peptide: FPLVTPLL
B54: IEQIRAVL (SEQ ID NO: 144) (peptide)
peptide: IEQIRAVL

Target: T1, HLA-B*08:01 (human)
T1 construct: MHC monomer first loaded with a UV-sensitive peptide that is cleaved by UV light and exchanged for the test peptide
Test: UV peptide exchange ELISA
From the text: Candidate peptides for T cell based therapies according to the present invention were further tested for their MHC binding capacity (affinity). The individual peptide-MHC complexes were produced by UV-ligand exchange, where a UV-sensitive peptide is cleaved upon UV-irradiation and exchanged with the peptide of interest as analyzed. Only peptide candidates that can effectively bind and stabilize the peptide-receptive MHC molecules prevent dissociation of the MHC complexes. To determine the yield of the exchange reaction, an ELISA was performed based on the detection of the light chain (β2m) of stabilized MHC complexes. The assay was performed as generally described in Rodenko et al. (Rodenko et al., 2006).
96 well MAXISorp plates (NUNC) were coated over night with 2 ug/ml streptavidin in PBS at room temperature, washed 4× and blocked for 1 h at 37° C. in 2% BSA containing blocking buffer. Refolded HLA-A*02:01/MLA-001 monomers served as standards, covering the range of 15-500 ng/ml. Peptide-MHC monomers of the UV-exchange reaction were diluted 100-fold in blocking buffer. Samples were incubated for 1 h at 37° C., washed four times, incubated with 2 ug/ml HRP conjugated anti-β2m for 1 h at 37° C., washed again and detected with TMB solution that is stopped with […]. Absorption was measured at 450 nm. Candidate peptides that show a high exchange yield (preferably higher than 50%, most preferred higher than 75%) are generally preferred for a generation and production of antibodies or fragments thereof, and/or T cell receptors or fragments thereof, as they show sufficient avidity to the MHC molecules and prevent dissociation of the MHC complexes.

| Binder | peptide exchange yield |
| --- | --- |
| B1 | 20 to 50% |
| B2 | 20 to 50% |
| B3 | 20 to 50% |
| B4 | 50 to 75% |
| B5 | 20 to 50% |
| B6 | 20 to 50% |
| B7 | 20 to 50% |
| B8 | 50 to 75% |
| B9 | 20 to 50% |
| B10 | 50 to 75% |
| B11 | 20 to 50% |
| B12 | 50 to 75% |
| B13 | 20 to 50% |
| B14 | 20 to 50% |
| B15 | 50 to 75% |
| B16 | 20 to 50% |
| B17 | 20 to 50% |
| B18 | 20 to 50% |
| B19 | 50 to 75% |
| B20 | 20 to 50% |
| B21 | 20 to 50% |
| B22 | 20 to 50% |
| B23 | 20 to 50% |
| B24 | 50 to 75% |
| B25 | 10 to 20% |
| B26 | 20 to 50% |
| B27 | 20 to 50% |

| Binder | peptide exchange yield |
| --- | --- |
| B28 | 20 to 50% |
| B29 | 20 to 50% |
| B30 | 20 to 50% |
| B31 | 20 to 50% |
| B32 | 20 to 50% |
| B33 | 20 to 50% |
| B34 | 50 to 75% |
| B35 | 20 to 50% |
| B36 | 50 to 75% |
| B37 | 20 to 50% |
| B38 | 50 to 75% |
| B39 | 50 to 75% |
| B40 | 50 to 75% |
| B41 | 20 to 50% |
| B42 | 20 to 50% |
| B43 | 50 to 75% |
| B44 | 20 to 50% |
| B45 | 50 to 75% |
| B46 | 20 to 50% |
| B47 | 50 to 75% |
| B48 | 20 to 50% |
| B49 | 50 to 75% |
| B50 | 20 to 50% |
| B51 | 50 to 75% |
| B52 | 50 to 75% |
| B53 | 50 to 75% |
| B54 | 20 to 50% |

Source: US20250145684A1 (IMMATICS BIOTECHNOLOGIES, published 2025)
